The values that follow come from patent US20260139046A1 (ATTOVIA THERAPEUTICS, published 2026).

In test [1] the target is T1, human IL31 (human, UniProt Q6EBC2 24-164, biotinylated in the SPR assay (site not stated)).
T1 sequence: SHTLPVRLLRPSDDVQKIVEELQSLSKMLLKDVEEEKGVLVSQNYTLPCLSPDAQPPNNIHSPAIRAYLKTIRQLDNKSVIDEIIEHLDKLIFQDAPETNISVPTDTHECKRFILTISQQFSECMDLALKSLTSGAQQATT
Kind of test: cell-based or functional assay.

The target of test [2] is T1, human IL31. Kind of test: SPR (Biacore T200, Biotin CAPture): biotinylated IL31 captured, co-binder Fc fusion as analyte. On the procedure: (§1) Binding affinity was measured using Biotin CAPture Kit (Cytiva Life Sciences) and the BIACORE™ T200 SPR system (Cytiva Life Sciences). Initially, Biotin CAPture Reagent (Cytiva Life Sciences) was flowed to immobilize 3 nM biotinylated IL31 (ligand). 3 nM, 9 nM, and 27 nM anti-IL31 co-binders were flowed as analyte with 180 seconds association and running buffer was flowed with 3000 seconds dissociation. The sensor chip was regenerated by guanidine hydrochloride and sodium hydroxide.
On the technique in general: In SPR one partner is held on a chip, and binding of the other changes the refractive index at the surface.

Test [3] deals with T1, human IL31. The test is described as above. On the procedure: as §1
The source holds these as a separate data set.

Test [4] addresses T1, human IL31. Kind of test: cell-based or functional assay. This is another data set of the same source.
Test [5] deals with T1, human IL31. Nature of the test: KD of wild-type and humanized co-binders; method not restated (SPR as in Example 4 presumed).
Test [6] concerns the target T1, human IL31. Kind of test: cell-based or functional assay. This is another data set of the same source.
In test [7] the target is T1, human IL31. Kind of test: binding kinetics, large-scale material, baseline sample; method and target not restated (SPR on IL31 presumed).
In test [8] the target is T1, human IL31. Kind of test: binding kinetics after 3x freeze/thaw; method and target not restated (SPR on IL31 presumed).

B1: 21H7 co-binder + huIgG1Fc_YTE_C→S (Fc fusion)
chain: EVQLVESGGGLVQAGGSLRLSCAASGGTFSSYTMGWFRQAPGKEREYVGGISSSGYVMYNSESMKGRFTISRENAKNMVYLQMNSLKPEDTAVYYCAAGTIGRPYDYWGQGTQVTVSSGGGSGGGGSGGGGSGGGGSGGGGSGGGGSGGGGSEGVGLVESGGGSVQAGDSLRLSCAASGRTFSTYIIGWFRQAPGKEREFVASISWGGRGTYYADSVKDRFTISRDNPKNMVYLQMNSLKPEDTAVYYCAAGDLPGGRRALDYDYWGQGTLVTVSSEPKSSDKTHTCPPCPAPELLGGPSVFLFPPKPKDTLYITREPEVTCVVVDVSHEDPEVKFNWYVDGVEVHNAKTKPREEQYNSTYRVVSVLTVLHQDWLNGKEYKCKVSNKALPAPIEKTISKAKGQPREPQVYTLPPSRDELTKNQVSLTCLVKGFYPSDIAVEWESNGQPENNYKTTPPVLDSDGSFFLYSKLTVDKSRWQQGNVFSCSVMHEALHNHYTQKSLSLSPGK
notes: VHH1-linker-VHH2-Fc; also called 21H7 WT; 21H7Fc
One may read the Kd as the concentration at which binding is half-saturated. What is called koff is a measure of how fast the partners let go of each other. Higher therefore signals fast dissociation. As usually defined, the kon is a measure of how fast the partners come together. For the molecule B1, the “Activity (IC50, nM); pSTAT3 assay per Table 4” value (“Activity … per Table 4” below) in test [1] was determined as 8.4 nM. Further, the Kd in test [2] was 0.0148 nM; in test [3] it was 0.0148 nM; in test [5], 0.0104 nM; in test [7], 18.6 nM; in test [8] it was 19.4 nM. Besides, the “EC50 (pSTAT3) nM” value in test [4] came to 6.65 nM. In addition, the “Activity (IC50, nM), pSTAT3 assay (P^3)” value in test [6] was 8.4 nM. Also, the off-rate constant (koff) in test [7] came out at 0.00423 s⁻¹; in test [8], 0.00435 s⁻¹. The kon in test [7] amounted to 228000 M⁻¹ s⁻¹; in test [8], 224000 M⁻¹ s⁻¹.

B2: 1H5 co-binder + huIgG1Fc_YTE_C→S (Fc fusion)
chain: EVQLVESGGGSVQAGGSLRLSCAASGGTFSSYAMAWFRQAPGKEREYVAGISSSGYTLYKSDSMKGRFTISRENAKNMVYLQMNSLKPEDTAVYSCAAGIFGRPYEYWGQGTQVTVSSGGGGSGGGGSGGGGSRSVGVQLVESGGGLVQAGGSLRLSCAASGSISSIHAMGWYRQAPGKQRELIAAITSGGRRHYRDSVKGRFTISGDNAKTNLYLQMNSLKPEDTAVYYCAADTGRVAVGEYDYWGQGTLVTVSSEPKSSDKTHTCPPCPAPELLGGPSVFLFPPKPKDTLYITREPEVTCVVVDVSHEDPEVKFNWYVDGVEVHNAKTKPREEQYNSTYRVVSVLTVLHQDWLNGKEYKCKVSNKALPAPIEKTISKAKGQPREPQVYTLPPSRDELTKNQVSLTCLVKGFYPSDIAVEWESNGQPENNYKTTPPVLDSDGSFFLYSKLTVDKSRWQQGNVFSCSVMHEALHNHYTQKSLSLSPGK
notes: VHH1-linker-VHH2-Fc
In the case of B2, the “Activity … per Table 4” value in test [1] was determined as 6.1 nM. Also, the Kd in test [2] was 0.0032 nM; in test [3], 0.0032 nM; in test [7] it was 0.136 nM; in test [8] it was 0.619 nM. Moreover, the “Activity (IC50, nM), pSTAT3 assay (P^3)” value in test [6] turned out to be 6.1 nM. The results for the off-rate (koff) in test [7] and in test [8] were 0.000138 s⁻¹ and 0.000551 s⁻¹, respectively. Also, the kon in test [7] came out at 1.01e+06 M⁻¹ s⁻¹; in test [8], 890000 M⁻¹ s⁻¹.

B3: 1D1 co-binder + huIgG1Fc_YTE_C→S (Fc fusion)
chain: EVQLVESGGGLVQAGGSLRLSCAASGGTFSSYAMAWFRQAPGKEREYVAGISSSGYTLYKSDSMKGRFTISRENAKNMVYLQMNSLKPEDTAVYSCAAGIFGRPYEYWGQGTLVTVSSGGGSGGGGSGGGGSGGGGSGGGGSPSMGVKLEESGGGLVQAGGSLILSCAASGDIPSIVAMGWYRQAPGKQRELVAAITSGGRTHYRDSVKGRFTISGNNDNSALYLHMNSLKPEDTAVYYCAADMGLTAVGEYDYWGQGTQVTVSSEPKSSDKTHTCPPCPAPELLGGPSVFLFPPKPKDTLYITREPEVTCVVVDVSHEDPEVKFNWYVDGVEVHNAKTKPREEQYNSTYRVVSVLTVLHQDWLNGKEYKCKVSNKALPAPIEKTISKAKGQPREPQVYTLPPSRDELTKNQVSLTCLVKGFYPSDIAVEWESNGQPENNYKTTPPVLDSDGSFFLYSKLTVDKSRWQQGNVFSCSVMHEALHNHYTQKSLSLSPGK
notes: VHH1-linker-VHH2-Fc; also called 1D1 WT; 1D1Fc
For B3, the “Activity … per Table 4” value in test [1] came out at 6.7 nM. Besides, the Kd in test [2] was found to be 0.024 nM; in test [3], 0.024 nM; in test [5], 0.0153 nM; in test [7], 1.94 nM; in test [8], 3.22 nM. The “EC50 (pSTAT3) nM” value in test [4] worked out at 8.42 nM. In addition, in test [6], the “Activity (IC50, nM), pSTAT3 assay (P^3)” value turned out to be 6.7 nM. Also, the results for the koff in test [7] and in test [8] were 0.000405 s⁻¹ and 0.000628 s⁻¹, respectively. The kon in test [7] came out at 209000 M⁻¹ s⁻¹; in test [8], 195000 M⁻¹ s⁻¹.

B4: 1C10 co-binder + huIgG1Fc_YTE_C→S (Fc fusion)
chain: EVQLVESGGGLVQAGGSLRLSCAASGGTFSSYTMGWFRQAPGKEREYVGGISSSGYVMYNSESMKGRFTISRENAKNMVYLQMNSLKPEDTAVYYCAAGTIGRPYDYWGQGTQVTVSSGGGSGGGGSGGGGSGGGGSGGGGSGGGGSGGGGSGMTGVKLEESGGGLVQPGGSLILSCAASGDISSIVAMGWYRQAPGKQRELVAAITSGGRTHYRDSVKGRFTISGNNDNSALYLHMNSLKPEDTAVYYCAADRGWTSVGEYDYWGKGTLVTVSSEPKSSDKTHTCPPCPAPELLGGPSVFLFPPKPKDTLYITREPEVTCVVVDVSHEDPEVKFNWYVDGVEVHNAKTKPREEQYNSTYRVVSVLTVLHQDWLNGKEYKCKVSNKALPAPIEKTISKAKGQPREPQVYTLPPSRDELTKNQVSLTCLVKGFYPSDIAVEWESNGQPENNYKTTPPVLDSDGSFFLYSKLTVDKSRWQQGNVFSCSVMHEALHNHYTQKSLSLSPGK
notes: VHH1-linker-VHH2-Fc; also called 1C10 WT; 1C10Fc
Turning to B4, the “Activity … per Table 4” value in test [1] was found to be 8.5 nM. In addition, the equilibrium dissociation constant (Kd) was 0.0587 nM in test [2]; 0.0587 nM in test [3]; 0.0126 nM in test [5]; 1.5 nM in test [7]; 3.45 nM in test [8]. The “EC50 (pSTAT3) nM” value in test [4] stood at 6.57 nM. Further, in test [6], the “Activity (IC50, nM), pSTAT3 assay (P^3)” value came out at 8.5 nM. Also, the values for the koff in test [7] and in test [8] were 0.00033 s⁻¹ and 0.000675 s⁻¹, respectively. For the same molecule, the kon in test [7] is 220000 M⁻¹ s⁻¹; in test [8], 196000 M⁻¹ s⁻¹.
